Patent publication US20250115886A1 (University of Pennsylvania, published 2025)

B2: Cdc24-mScarlet-TsCC(B) (other, not shown: large carriers)
chain: MAIQTRFASGTSLSDLKPKPSATSISIPMQNVMNKPVTEQDSLFHICANIRKRLEVLPQLKPFLQLAYQSSEVLSERQSLLLSQKQHQELLKSNGANRDSSDLAPTLRSSSISTATSLMSMEGISYTNSNPSATPNMEDTLLTFSMGILPITMDCDPVTQLSQLFQQGAPLCILFNSVKPQFKLPVIASDDLKVCKKSIYDFILGCKKHFAFNDEELFTISDVFANSTSQLVKVLEVVETLMNSSPTIFPSKSKTQQIMNAENQHRHQPQQSSKKHNEYVKIIKEFVATERKYVHDLEILDKYRQQLLDSNLITSEELYMLFPNLGDAIDFQRRFLISLEINALVEPSKQRIGALFMHSKHFFKLYEPWSIGQNAAIEFLSSTLHKMRVDESQRFIINNKLELQSFLYKPVQRLCRYPLLVKELLAESSDDNNTKELEAALDISKNIARSINENQRRTENHQVVKKLYGRVVNWKGYRISKFGELLYFDKVFISTTNSSSEPEREFEVYLFEKIIILFSEVVTKKSASSLILKKKSSTSASISASNITDNNGSPHHSYHKRHSNSSSSNNIHLSSSSAAAIIHSSTNSSDNNSNNSSSSSLFKLSANEPKLDLRGRIMIMNLNQIIPQNNRSLNITWESIKEQGNFLLKFKNEETRDNWSSCLQQLIHDLKNEQFKARHHSSTSTTSSTAKSSSMMSPTTTMNTPNHHNSRQTHDSMASFSSSHMKRVSDVLPKRRTTSSSFESEIKSISENFKNSIPESSILFRISYNNNSNNTSSSEIFTLLVEKVWNFDDLIMAINSKISNTHNNNISPITKIKYQDEDGDFVVLGSDEDWNVAKEMLAENNEKFLNIRLYVEVAEEVKAVSAALSERITQLATELNDKAVRAAERRVAEVTRAAGEQTAQAERELADAAQTVDDLEEKLVELQDRYDSLTLALESERSLRQQHDVEMAQLKERLAAAEENTRQEEERYQEQKTVLQDALNAEQAQHKNTREDLQKRLEQISVEANARTEELKSERDKVNTFLTRLESQENALASEEQQHLATRETLQQRLEQAIADTQARAGEIALERDRVSSLTARLESQEKASSEQLVRMGSEIASLTERCTQLENQRDDARLETMGEKETVAALRGEAEALKRQNQSLMAALSGNKQTGGQNA

Assays:
[1] = target: T1, RGG-SZ2 (Caenorhabditis elegans); assay: fluorescence microscopy of purified proteins, 4 µM
T1 construct: Purified from E. coli; also called single RGG domain tagged with SZ2
T1 chain: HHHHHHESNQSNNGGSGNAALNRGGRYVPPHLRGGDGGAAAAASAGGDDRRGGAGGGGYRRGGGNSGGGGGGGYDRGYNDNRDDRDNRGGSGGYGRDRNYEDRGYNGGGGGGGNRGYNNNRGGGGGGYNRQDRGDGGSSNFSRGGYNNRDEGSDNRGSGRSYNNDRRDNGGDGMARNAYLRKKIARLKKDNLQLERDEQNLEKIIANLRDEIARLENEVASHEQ

[2] = target: TsCC(A)-(RGG)3-GFP scaffold (Caenorhabditis elegans); assay: cell-based or functional assay
[3] = target: B2; assay: fluorescence microscopy of client localization in yeast

B1: SZ1-RGG (other)
chain: HHHHHHMNLVAQLENEVASLENENETLKKKNLHKKDLIAYLEKEIANLRKKIEEESNQSNNGGSGNAALNRGGRYVPPHLRGGDGGAAAAASAGGDDRRGGAGGGGYRRGGGNSGGGGGGGYDRGYNDNRDDRDNRGGSGGYGRDRNYEDRGYNGGGGGGGNRGYNNNRGGGGGGYNRQDRGDGGSSNFSRGGYNNRDEGSDNRGSGRSYNNDRRDNGGDG
notes: Purified from E. coli; also called single RGG domain tagged with SZ1
[1]
  binding result: binds

## B2
[2]
  fold decrease in rate of cell proliferation in liquid culture: ~12 fold

B3: (RGG)3 condensates that lack the interaction tag (other)
chain: ESNQSNNGGSGNAALNRGGRYVPPHLRGGDGGAAAAASAGGDDRRGGAGGGGYRRGGGNSGGGGGGGYDRGYNDNRDDRDNRGGSGGYGRDRNYEDRGYNGGGGGGGNRGYNNNRGGGGGGYNRQDRGDGGSSNFSRGGYNNRDEGSDNRGSGRSYNNDRRDNGGDGESNQSNNGGSGNAALNRGGRYVPPHLRGGDGGAAAAASAGGDDRRGGAGGGGYRRGGGNSGGGGGGGYDRGYNDNRDDRDNRGGSGGYGRDRNYEDRGYNGGGGGGGNRGYNNNRGGGGGGYNRQDRGDGGSSNFSRGGYNNRDEGSDNRGSGRSYNNDRRDNGGDGESNQSNNGGSGNAALNRGGRYVPPHLRGGDGGAAAAASAGGDDRRGGAGGGGYRRGGGNSGGGGGGGYDRGYNDNRDDRDNRGGSGGYGRDRNYEDRGYNGGGGGGGNRGYNNNRGGGGGGYNRQDRGDGGSSNFSRGGYNNRDEGSDNRGSGRSYNNDRRDNGGDG
notes: Control scaffold without coiled-coil tag; The other scaffolds carry GFP; also called control scaffolds that lack the cognate coiled-coil tag
[3]
  binding result: no binding
